Assay results from patent US5726147A, “Human mutant tissue factor compositions useful as tissue factor antagonists” (priority 1995, dated 1998).
Residue numbers refer to the chain shown, from its start.

B1: S39-T40-S42: human tissue factor triple mutant with alanine at positions 39, 40 and 42 (protein, UniProt P13726 33-295, looked up, variant S39A T40A S42A)
Tissue factor: SGTTNTVAAYNLTWKSTNFKTILEWEPKPVNQVYTVQIAAKAGDWKSKCFYTTDTECDLTDEIVKDVKQTYLARVFSYPAGNVESTGSAGEPLYENSPEFTPYLETNLGQPTIQSFEQVGTKVNVTVEDERTLVRRNNTFLSLRDVFGKDLIYTLYYWKSSSSGKKTAKTNTNEFLIDVDKGENYCFSVQAVIPSRTVNRKSTDSPVECMGQEKGEFREIFYIIGAVVFVVIILVIILAISLHKCRKAGVGQSWKENSPLNVS
B2: Asn-199: human tissue factor mutant, Asn-199 replaced by alanine (protein, UniProt P13726 33-295, looked up, variant N199A)
Tissue factor: B1 Tissue factor with A39S, A40T, A42S, N199A
B3: Val-67: human tissue factor mutant, Val-67 replaced by alanine (protein, UniProt P13726 33-295, looked up, variant V67A)
Tissue factor: B1 Tissue factor with A39S, A40T, A42S, V67A
B4: Tyr-71: human tissue factor mutant, Tyr-71 replaced by alanine (protein, UniProt P13726 33-295, looked up, variant Y71A)
Tissue factor: B1 Tissue factor with A39S, A40T, A42S, Y71A
B5: Asp-145: human tissue factor mutant, Asp-145 exchanged for alanine (protein, UniProt P13726 33-295, looked up, variant D145A)
Tissue factor: B1 Tissue factor with A39S, A40T, A42S, D145A
B6: Val-146: human tissue factor mutant, Val-146 exchanged for alanine (protein, UniProt P13726 33-295, looked up, variant V146A)
Tissue factor: B1 Tissue factor with A39S, A40T, A42S, V146A
B7: Arg-131: human tissue factor mutant, Arg-131 exchanged for alanine (protein, UniProt P13726 33-295, looked up, variant R131A)
Tissue factor: B1 Tissue factor with A39S, A40T, A42S, R131A
B8: Arg-136: human tissue factor mutant, Arg-136 exchanged for alanine (protein, UniProt P13726 33-295, looked up, variant R136A)
Tissue factor: B1 Tissue factor with A39S, A40T, A42S, R136A
B9: Glu-105: human tissue factor mutant, Ala replacement for Glu-105 (protein, UniProt P13726 33-295, looked up, variant E105A)
Tissue factor: B1 Tissue factor with A39S, A40T, A42S, E105A
B10: Thr-106: human tissue factor mutant, Ala replacement for Thr-106 (protein, UniProt P13726 33-295, looked up, variant T106A)
Tissue factor: B1 Tissue factor with A39S, A40T, A42S, T106A
B11: Thr-139/Ser-142: human tissue factor mutant, Thr-139 and Ser-142 exchanged for alanine (protein, UniProt P13726 33-295, looked up, variant T139A S142A)
Tissue factor: B1 Tissue factor with A39S, A40T, A42S, T139A, S142A
B12: Phe-147: human tissue factor mutant, Phe-147 exchanged for alanine (protein, UniProt P13726 33-295, looked up, variant F147A)
Tissue factor: B1 Tissue factor with A39S, A40T, A42S, F147A
B13: Arg-200/Lys-201: human tissue factor mutant, Arg-200 and Lys-201 replaced by alanine (protein, UniProt P13726 33-295, looked up, variant R200A K201A)
Tissue factor: B1 Tissue factor with A39S, A40T, A42S, R200A, K201A
B14: Val-198: human tissue factor mutant, Val-198 replaced by alanine (protein, UniProt P13726 33-295, looked up, variant V198A)
Tissue factor: B1 Tissue factor with A39S, A40T, A42S, V198A
B15: Ser-16: full-length human tissue factor mutant, Ser-16 replaced by alanine (protein, UniProt P13726 1-295, looked up, variant S16A)
chain: METPAWPRVPRPETAVARTLLLGWVFAQVAGASGTTNTVAAYNLTWKATNFKTILEWEPKPVNQVYTVQISTKSGDWKSKCFYTTDTECDLTDEIVKDVKQTYLARVFSYPAGNVESTGSAGEPLYENSPEFTPYLETNLGQPTIQSFEQVGTKVNVTVEDERTLVRRNNTFLSLRDVFGKDLIYTLYYWKSSSSGKKTAKTNTNEFLIDVDKGENYCFSVQAVIPSRTVNRKSTDSPVECMGQEKGEFREIFYIIGAVVFVVIILVIILAISLHKCRKAGVGQSWKENSPLNVS
modifications: full-length
notes: full-length human tissue factor mutant, Ser-16 replaced by alanine
B16: Thr-17: full-length human tissue factor mutant, Thr-17 replaced by alanine (protein, UniProt P13726 1-295, looked up, variant T17A)
chain: B15 chain with A48S, T49A
modifications: full-length
notes: full-length human tissue factor mutant, Thr-17 replaced by alanine
B17: Phe-19: full-length human tissue factor mutant, Phe-19 replaced by alanine (protein, UniProt P13726 1-295, looked up, variant F19A)
chain: B15 chain with A48S, F51A
modifications: full-length
notes: full-length human tissue factor mutant, Phe-19 replaced by alanine
B18: Asp-58 to Ala: human tissue factor mutant, Asp-58 to Ala exchange (EN-strand) (protein, UniProt P13726 33-295, looked up, variant D58A)
Tissue factor: B1 Tissue factor with A39S, A40T, A42S, D58A
B19: Val-64/Tyr-71 to Ala: human tissue factor Val-64/Tyr-71 to Ala double mutant (protein, UniProt P13726 33-295, looked up, variant V64A Y71A)
Tissue factor: B1 Tissue factor with A39S, A40T, A42S, V64A, Y71A

Each molecule was assayed on coagulation in recalcified plasma (assay: One stage clotting (coagulation) assay of specific functional activity of full-length TF mutants in CHO cell lysates). Conditions: full-length Ala mutant expressed in CHO cells, cell lysate, coagulant activity normalized to antigen, relative to wild-type TF.
Assay type: biochemical
Experimental: The full-length TF mutants prepared above were analyzed for function by coagulation assay. […] Coagulation factor deficient plasmas were purchased from George King Bio-medical. The chromogenic substrate, Spectrozyme FXa, was from American Diagnostica Inc. (Greenwich, Conn.).
An alternative approach was to use a polyvalent antibody purified by affinity for capturing TF followed by detection with the TF8-5G9 monoclonal antibody described above.
Initiation of coagulation by wild-type and mutant TF in recalcified plasma was determined after lysis of cell pellets from 2×10^6 cells/ml for each expressed full-length mutant with 15 mM octyl-glucopyranoside in HBS for 15 minutes at 37 C. followed by a 3-fold dilution.
All data represented are based on at least three independent determinations performed in duplicate.

Molecule | loss of function (reduction in specific functional activity as % of wild-type activity)
B1 | 43%
B2 | 30-80%
B3 | 53%
B4 | 98%
B5 | 30-50%
B6 | 30-50%
B7 | 30-50%
B8 | 30-50%
B9 | more than 50%
B10 | more than 50%
B11 | 30-50%
B12 | 30-50%
B13 | 30-80%
B14 | 30-80%
B15 | more than 70%
B16 | more than 70%
B17 | more than 70%

Same assay, conditions: residue substituted at the named position

Molecule | reduction in tissue factor procoagulant cofactor activity when compared to wt-TF [%]
B2 | ≥ 75
B15 | ≥ 75
B16 | ≥ 75

These molecules were tested on recombinant VIIa (assay: Linked chromogenic assay with purified VIIa and factor X, apparent dissociation constant of the TF-VIIa interaction). Conditions: full-length Ala mutants, linked chromogenic assay.
Assay type: biochemical
Experimental: The lysate was prepared by treating cell pellets with 15 mM octyl-glucopyranoside for 15 minutes at 37 C. followed by a 3-fold dilution. […] Formed TF-VIIa complexes were quantified with substrate factor X added at 100 nM for a fixed time. Samples were then removed from the reaction and quenched in 100 mM EDTA in TBS (20 mM Tris-HCl 140 mM NaCl, pH 7.4). […] The rate of Spectrozyme hydrolysis, measured as the increase in absorbance (mOD/min), was determined at ambient temperature in a kinetic plate reader (Molecular Devices, Mountain View, Calif.) followed by quenching and monitoring of product factor Xa formation using the Spectrozyme FXa.
Enzfitter (Elsevier Biosoft) programs were employed to calculate the KDapp from the experimentally determined bound VIIa, and free VIIa which was obtained by subtracting bound VIIa from the initial VIIa concentration.

Molecule | change in KDapp for the TF-VIIa interaction compared to wild-type TF (ratio KD mutant/KD wild-type) [fold]
B18 | 41
B19 | 2.1
